Test results published in the supplement of paper PMC9170038.

The sequences below were run on MS2 coat protein (assay: apparent KD of MS2 coat protein, switch ON state; designed switch direction (-1 OFF switch, 1 ON switch): 1; higher = weaker reporter binding). Details: FMN input: 0 or 200 uM; Eterna round: R93 (includes R88 designs).
How it was run: (§1)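 Designed RNA switches were transcribed on-chip from Illumina sequencing clusters and titrated with SNAP-549-labelled MS2 coat protein in twofold steps from 0.7 or 1.5 nM up to 3 µM. Each step lasted 0.8–1.5 h at first and 10–20 min by the end, in 100 mM Tris-HCl pH 7.5, 80 mM KCl and 4 mM MgCl2, without or with constant ligand. Apparent KD is the median, for each design, of fits to normalised cluster binding curves.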

“AACAAUCUAUCUGAGGAUAUCAUGUCAAAGACAUGAGGAUCACCCAUGUAGCAGGAAACUGCAUAUGAGAAGGCAGAUAGAUUGA [SS2: 1118]” and “GUAUGCAUGAGGUAGGAUAUCCAAAACAAAACAUGAGGAUCACCCAUGUAAACAAACAACAAAUGGGAGAAGGACCACAUGUAUAC [Ex6 sub 5]” are within 1.5-fold of each other in “apparent KD of MS2 coat protein” value: 16.3 nM for the first, 13.1 nM for the second.

Compared with “AACAAUCUAUCUGAGGAUAUGAUGUCAAAGACAUGAGGAUCACCCAUGUCCAGGAAAACUGGAUAUCAGAAGGCAGAUAGAUUGA [SS2: 1104]”, “AAAUGAUCAUGUGAGGAUAUCCAUAAUAAAACAUGAGGAUCACCCAUGUAUAGAUAAUAAUAAUGGGAGAAGGCACAUGAUCAAU [Mat - Same state - Mayanna Mod - D103]” is 2-fold higher in “apparent KD of MS2 coat protein” value: 10.2 nM for the first, 20 nM for the second.

“GUAGAACAUGAGGAUCACCCAUGUGAAGACGCAUGAGGAUAUAUACGUAAAUAGCAUACGAUAGAAGGCAUGAUAA [JR_SS001_Sub1703]” and “AGAAAACAUGAGGAUCACCCAUGUAGAAAUAUGGGAGGAUAUACGAAGACGAAAGUCAAAGUAGAAGGCCUAAGAA [Mat - Same State 1 - Eli mod - D108]” are within 1.5-fold of each other in “apparent KD of MS2 coat protein” value: 25.5 nM for the first, 18.8 nM for the second.

First: AAGUCACAUGAGGAUCACCCAUGUCGUAAACGAUGAGGAUAUAGGAAGAAAAAAAAAAAACUAGAAGGUAUUACAA [SameState1-02]
Second: AAUCCAAAUAGUCAGGAUAUCAAAAAUAAGACAUGAGGAUCACCCAUGUAAUAAGUAAAAGUAAAUGAGAAGGGACAGGGUGAAA [JR_SS002_Sub401]
The “apparent KD of MS2 coat protein” value of the first is 12-fold lower: 32.5 nM for the first, 398 nM for the second.

First: AAAACACAUGAGGAUCACCCAUGUAAAAACUUGGGAGGAUAUGCUUGGAAAACAUGCUAUGCAGAAGGCUCUAGUG [SS1 - 13]
Second: AGAAAUAAAAGACAGGAUAUCCAAAACUCAACAUGAGGAUCACCCAUGUAAAAGAAAAUAAAAUGGGAGAAGGGUCAAAAUAAGA [Jieux modified + C segment V2]
The “apparent KD of MS2 coat protein” value of the first is 3.3-fold higher: 49.9 nM for the first, 15.3 nM for the second.

These sequences were tested on MS2 coat protein (assay: apparent KD of MS2 coat protein, switch OFF state (with FMN for OFF switches, without FMN for ON switches); designed switch direction (-1 OFF switch, 1 ON switch): 1; higher = weaker reporter binding). Details: FMN input: 0 or 200 uM; Eterna round: R93 (includes R88 designs).
How it was run: as §1

First: AAGAACGUGGUGUAGGAUAUACUAAUAGUCACAUGAGGAUCACCCAUGUUCAUAUAUAUGAACGAGUAGAAGGACGACGAAAAAA [Mat - Same state - Malcolm Mod - D107]
Second: GAGGACAUAGUACAGGAUAUAUGAAUAGUUACAUGAGGAUCACCCAUGUGCAUUUAUAUGCGAACAUAGAAGGGUGGUAGUUAUC [SameState2 Malc#30]
The “apparent KD of MS2 coat protein” value of the first is 2.1-fold higher: 147 nM for the first, 68.9 nM for the second.

Compared with “AAAAAACAUGAGGAUCACCCAUGUAAAAAUAUGGGAGGAUAUGCGAAAAGAAACAAAGAAGCAGAAGGCCUAAAAA [75%, Ex5 sub 1, 8]”, “AACAAUCUAUCUGAGGAUAUGUGUCGAAAGACAUGAGGAUCACCCAUGUAAAAACAUGGAAAAUCACAGAAGGCAGAUAGAUUGA [SS2: 1145]” is 9.7-fold higher in “apparent KD of MS2 coat protein” value: 185 nM for the first, 1790 nM for the second.

“AUUAAAUAUAGUUAGGAUAUAAUAUGUAAGACAUGAGGAUCACCCAUGUCCUAAGAAUAGUUAAAUUAGAAGGAACAGUGAAUAU [JR_SS002_Sub420]” and “GGGAGGAAGAGAGAGGAUAUCCAAAGGAAAACAUGAGGAUCACCCAUGUAAAAGGUAGGAAAUUGGGAGAAGGCUCAAAAGAAGG [salish99-ss2-045]” are within 1.5-fold of each other in “apparent KD of MS2 coat protein” value: 24.5 nM for the first, 36.5 nM for the second.

“AUAAAACAUGAGGAUCACCCAUGUAAAAAUAUGGAAGGAUAUACGUAGUAAAAUAAAUACGUAGAAGGUCCAAAAA [SS! MT 21]” and “AUAAAACAUGAGGAUCACCCAUGUAGAAAUAAGGGAGGAUAUACAAAGACGAAAGUCAAAGUAGAAGGCUCAAAAG [76%, Meechl 5]” are within 1.5-fold of each other in “apparent KD of MS2 coat protein” value: 19.7 nM for the first, 24.3 nM for the second.

Going from “AAAAAACAUGAGGAUCACCCAUGUAAAAAAAUGGGAGGAUAUCUGAAUUAAUUAAAUUAAGGAGAAGGCCUAAAAA [71%, Same state of confusion2, 4]” to “AAAAAACAUGAGGAUCACCCAUGUGAGAAUAUGGAAGGAUAUACAAAGACGAAAGUCAAAGUAGAAGGUCUAAAAG [Mat - Same State 1 - Eli mod - D90]”, the “apparent KD of MS2 coat protein” value falls from 425 nM to 31.5 nM (13-fold).

“GAUAGACAUGAGGAUCACCCAUGUAGAAUUAUGGGAGGAUAUACAAAGACGAGAGUCAGAGUAGAAGGCCUAGGAU [salish99-ss1-157]” and “AAAAAAAAAACUGAGGAUAUCAGGGAUGGUACAUGAGGAUCACCCAUGUUGGCGGGCGAAGAAACUGAGAAGGCAGAAAAAAAAAA [JR_SameState2_Sub4]” are within 1.5-fold of each other in “apparent KD of MS2 coat protein” value: 54.4 nM for the first, 79.6 nM for the second.

“AAAACACAUGAGGAUCACCCAUGUAAAAACAUGAGAGGAUAUGCAUGGAAAAAAAACUAUGCAGAAGGCUCAUGUG [SS1 - 4]” and “AAGAAACAUGAGGAUCACCCAUGUAAGAUAAACACAGGAUAUGCGAAAAUAAAUAAAUAAGCAGAAGGGUGAAAAG [Mat - Same State 1 - Tesla mod - 75]” are within 1.5-fold of each other in “apparent KD of MS2 coat protein” value: 32.2 nM for the first, 32.4 nM for the second.

Going from “AAUAUACAUGAGGAUCACCCAUGUUAGGUGGGACUAGGAUAUCAAAAUAAAUAAAGAACAUGAGAAGGAGUAUAAA [JR_SS001_Sub017]” to “ACUAGGAAGAGAGAGGAUAUCCAAAGGAAAACAUGAGGAUCACCCAUGUAAAAGGUAGGAAAUUGGGAGAAGGCUCAAGAGAGAG [salish99-ss2-085]”, the “apparent KD of MS2 coat protein” value falls from 178 nM to 24.4 nM (7.3-fold).

First: AAAGAAAAACUAGAGGAUAUUUGAAUGGUAACAUGAGGAUCACCCAUGUGAAGAAAGGAACAUGAGGAGAAGGCUAGAAGAAAAA [JL Nando mod 16]
Second: GGGAGACAUGAGGAUCACCCAUGUGAGAAGAGGCGAGGAUAUCGAAAGAAAGAAGAGAAACGAGAAGGCGCGAGGA [salish99-SS1-051]
The “apparent KD of MS2 coat protein” value of the first is 1.7-fold higher: 74.7 nM for the first, 44.7 nM for the second.

Going from “AAAAGACAUGAGGAUCACCCAUGUAAAGACGUGGGAGGAUAUGUAUGGAAACCAGACUGUACAGAAGGCCUCUGUC [SS1 - 72]” to “AAAACACAUGAGGAUCACCCAUGUAGAAAUACGGGAGGAUAUGCAAAAACGAAAGACAAAGUAGAAGGCCUAAAAG [saturn 9]”, the “apparent KD of MS2 coat protein” value falls from 243 nM to 67 nM (3.6-fold).

First: AACUAACAUGAGGAUCACCCAUGUAUUCAAACAUGAGGAUAUAUAACACAUCAUCAACAGAUAGAAGGCAUAAAUA [JR_SS001_Sub1204]
Second: AACAAUCUAUCUGAGGAUAUCAUGUCAAAGACAUGAGGAUCACCCAUGUAGCAGGAAACUGCAUAUGAGAAGGCAGAUAGAUUGA [SS2: 1118]
The “apparent KD of MS2 coat protein” value of the first is 2-fold lower: 82.3 nM for the first, 166 nM for the second.

Going from “GUAUGCAUGAGGUAGGAUAUCCAAAACAAAACAUGAGGAUCACCCAUGUAAACAAACAACAAAUGGGAGAAGGACCACAUGUAUAC [Ex6 sub 5]” to “AACAAUCUAUCUGAGGAUAUGAUGUCAAAGACAUGAGGAUCACCCAUGUCCAGGAAAACUGGAUAUCAGAAGGCAGAUAGAUUGA [SS2: 1104]”, the “apparent KD of MS2 coat protein” value falls from 27.1 nM to 12.9 nM (2.1-fold).

Compared with “AAAUGAUCAUGUGAGGAUAUCCAUAAUAAAACAUGAGGAUCACCCAUGUAUAGAUAAUAAUAAUGGGAGAAGGCACAUGAUCAAU [Mat - Same state - Mayanna Mod - D103]”, “GUAGAACAUGAGGAUCACCCAUGUGAAGACGCAUGAGGAUAUAUACGUAAAUAGCAUACGAUAGAAGGCAUGAUAA [JR_SS001_Sub1703]” is 3.1-fold higher in “apparent KD of MS2 coat protein” value: 17.2 nM for the first, 53.5 nM for the second.

Going from “AGAAAACAUGAGGAUCACCCAUGUAGAAAUAUGGGAGGAUAUACGAAGACGAAAGUCAAAGUAGAAGGCCUAAGAA [Mat - Same State 1 - Eli mod - D108]” to “AAGUCACAUGAGGAUCACCCAUGUCGUAAACGAUGAGGAUAUAGGAAGAAAAAAAAAAAACUAGAAGGUAUUACAA [SameState1-02]”, the “apparent KD of MS2 coat protein” value falls from 51.7 nM to 28.6 nM (1.8-fold).

“AAUCCAAAUAGUCAGGAUAUCAAAAAUAAGACAUGAGGAUCACCCAUGUAAUAAGUAAAAGUAAAUGAGAAGGGACAGGGUGAAA [JR_SS002_Sub401]” and “AAAACACAUGAGGAUCACCCAUGUAAAAACUUGGGAGGAUAUGCUUGGAAAACAUGCUAUGCAGAAGGCUCUAGUG [SS1 - 13]” are within 1.5-fold of each other in “apparent KD of MS2 coat protein” value: 92.8 nM for the first, 123 nM for the second.

“AGAAAUAAAAGACAGGAUAUCCAAAACUCAACAUGAGGAUCACCCAUGUAAAAGAAAAUAAAAUGGGAGAAGGGUCAAAAUAAGA [Jieux modified + C segment V2]” was tested, and the “apparent KD of MS2 coat protein” value was 33.8 nM.
